Assay results as given in paper PMC3792970, “A Single Nucleotide Polymorphism Associated with Hepatitis C Virus Infections Located in the Distal Region of the IL28B Promoter Influences NF-κB-Mediated Gene Transcription”.

Experiments:
NF-kB p50 [1] = target: T1, NF-kB p50 (UniProt P19838 42-367); assay: EMSA; 2 ug p50; diffuse shift; EMSA: 1X BB stated as 50 mM Tris pH 8.0, 250 mM KCl, 2.5 mM EDTA, 0.5% Triton X-100, 62.5% glycerol, 1 mM DTT; 1 ug poly(dI:dC), 10 ul, room temperature 30 min, 4% native PAGE at 4 C; pull-down: 1X BB, poly(dI:dC), RT 2 h; details: protein: recombinant; chain copies: 2; label: 5'-32P on forward strand (EMSA); biotin (pull-down); blunt
T1 sequence (P19838 42-367): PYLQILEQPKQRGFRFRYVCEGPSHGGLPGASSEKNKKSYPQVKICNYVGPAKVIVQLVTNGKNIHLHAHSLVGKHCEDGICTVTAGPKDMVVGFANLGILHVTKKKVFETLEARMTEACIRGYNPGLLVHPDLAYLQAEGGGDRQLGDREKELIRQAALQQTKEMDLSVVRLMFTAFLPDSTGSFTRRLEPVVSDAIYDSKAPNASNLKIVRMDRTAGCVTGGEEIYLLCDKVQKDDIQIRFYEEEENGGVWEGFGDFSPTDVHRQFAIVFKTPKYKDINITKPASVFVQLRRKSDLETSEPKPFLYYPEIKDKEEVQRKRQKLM

NF-kB p50 [2] = target: T1, NF-kB p50; assay: EMSA; 2 ug p50; distinct bands; EMSA: 1X BB stated as 50 mM Tris pH 8.0, 250 mM KCl, 2.5 mM EDTA, 0.5% Triton X-100, 62.5% glycerol, 1 mM DTT; 1 ug poly(dI:dC), 10 ul, room temperature 30 min, 4% native PAGE at 4 C; pull-down: 1X BB, poly(dI:dC), RT 2 h; details: protein: recombinant; chain copies: 2; label: 5'-32P on forward strand (EMSA); biotin (pull-down); blunt

B1: G-T (NF813G-T) (dsDNA)
DNA 1: CCCCTGCCCTCAGTGGGCAGCCTCTGCATTCCCTCAGCTCCCTTTCTCTCTGTGA
DNA 2: TCACAGAGAGAAAGGGAGCTGAGGGAATGCAGAGGCTGCCCACTGAGGGCAGGGG
B1: binds (NF-kB p50 [1]).

B2: C-C (NFC-C849) (dsDNA)
DNA 1: CCCCTGCCCTCAGTGGGCAGCCTCTCCATCCCCTCAGCTCCCTTTCTCTCTGTGA
DNA 2: TCACAGAGAGAAAGGGAGCTGAGGGGATGGAGAGGCTGCCCACTGAGGGCAGGGG
B2: binds (NF-kB p50 [2]).
